Assay results reported in the supplement of paper PMC9112550, “Optimization of the antimicrobial peptide Bac7 by deep mutational scanning” (BMC Biology, 2022).
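Also: peptides expressed intracellularly from a pBAD plasmid library in pooled LB shake-flask culture, induced with 0.3% L-arabinose, DNA abundance read by NGS, three biological replicates, DESeq2 with apeglm shrinkage.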

What follows are sequences tested on Escherichia coli TOP10 (assay: shrunken log2 fold change of peptide-encoding DNA abundance (4.5 h post-induction vs induction); higher = less antimicrobial activity (less host growth inhibition)). Conditions: time post-induction: 4.5 h; library: site-saturation at positions 5, 18, 19, 20.
In the case of RRIRSRPPRLPRPRPRPVDIPRP, the “shrunken log2 fold change” value is reported as 0.147.
With RRIRNRPPRLPRPRPRPFYIPRP the “shrunken log2 fold change” value was -0.51.
In the case of RRIRIRPPRLPRPRPRPLVFPRP, the “shrunken log2 fold change” value is reported as -0.348.
In the case of RRIRARPPRLPRPRPRPLYNPRP, the “shrunken log2 fold change” value is reported as -0.225.
RRIRIRPPRLPRPRPRPHLPPRP was tested, and the “shrunken log2 fold change” value was -0.0411.
RRIRPRPPRLPRPRPRPNILPRP was tested, and the “shrunken log2 fold change” value was -0.305.
RRIRVRPPRLPRPRPRPGVPPRP was tested, and the “shrunken log2 fold change” value was 0.0752.
RRIRCRPPRLPRPRPRPMYHPRP was tested, and the “shrunken log2 fold change” value was -0.974.
With RRIRLRPPRLPRPRPRPCYNPRP the “shrunken log2 fold change” value was -0.206.
With RRIRPRPPRLPRPRPRPTINPRP the “shrunken log2 fold change” value was -0.51.
In the case of RRIRIRPPRLPRPRPRPYNHPRP, the “shrunken log2 fold change” value is reported as -0.138.
In the case of RRIRLRPPRLPRPRPRPPTEPRP, the “shrunken log2 fold change” value is reported as 0.296.
For RRIRVRPPRLPRPRPRPTNGPRP, the “shrunken log2 fold change” value was 0.239.
With RRIRFRPPRLPRPRPRPNPTPRP the “shrunken log2 fold change” value was 0.0233.
RRIRRRPPRLPRPRPRPRVTPRP was tested, and the “shrunken log2 fold change” value was 0.766.
With RRIRWRPPRLPRPRPRPDANPRP the “shrunken log2 fold change” value was 0.0696.
For RRIRARPPRLPRPRPRPYDTPRP, the “shrunken log2 fold change” value was -0.0699.
RRIRFRPPRLPRPRPRPSGCPRP was tested, and the “shrunken log2 fold change” value was -0.0116.
In the case of RRIRRRPPRLPRPRPRPDACPRP, the “shrunken log2 fold change” value is reported as 0.00716.
With RRIRQRPPRLPRPRPRPKQQPRP the “shrunken log2 fold change” value was -0.141.
In the case of RRIRVRPPRLPRPRPRPDSPPRP, the “shrunken log2 fold change” value is reported as 0.0663.
With RRIRKRPPRLPRPRPRPEVCPRP the “shrunken log2 fold change” value was 0.0227.
In the case of RRIRCRPPRLPRPRPRPDVLPRP, the “shrunken log2 fold change” value is reported as -0.489.
In the case of RRIRLRPPRLPRPRPRPVLQPRP, the “shrunken log2 fold change” value is reported as 0.195.
For RRIRFRPPRLPRPRPRPYEHPRP, the “shrunken log2 fold change” value was -0.0962.
RRIRCRPPRLPRPRPRPWDKPRP was tested, and the “shrunken log2 fold change” value was -0.0809.
In the case of RRIRPRPPRLPRPRPRPAQFPRP, the “shrunken log2 fold change” value is reported as 0.272.
In the case of RRIRGRPPRLPRPRPRPARHPRP, the “shrunken log2 fold change” value is reported as 0.664.
For RRIRPRPPRLPRPRPRPCNYPRP, the “shrunken log2 fold change” value was -0.152.
In the case of RRIRNRPPRLPRPRPRPYCRPRP, the “shrunken log2 fold change” value is reported as -0.982.
For RRIRPRPPRLPRPRPRPSFQPRP, the “shrunken log2 fold change” value was 0.0876.
RRIRGRPPRLPRPRPRPLFAPRP was tested, and the “shrunken log2 fold change” value was 1.36.
With RRIRDRPPRLPRPRPRPYGVPRP the “shrunken log2 fold change” value was 0.00737.
RRIRSRPPRLPRPRPRPFEWPRP was tested, and the “shrunken log2 fold change” value was 0.0589.
In the case of RRIRQRPPRLPRPRPRPTVMPRP, the “shrunken log2 fold change” value is reported as 0.0964.
With RRIRTRPPRLPRPRPRPMEEPRP the “shrunken log2 fold change” value was -0.25.
RRIRPRPPRLPRPRPRPWPKPRP was tested, and the “shrunken log2 fold change” value was -0.0311.
In the case of RRIRFRPPRLPRPRPRPKGGPRP, the “shrunken log2 fold change” value is reported as 0.00425.
With RRIRNRPPRLPRPRPRPERSPRP the “shrunken log2 fold change” value was 0.129.
In the case of RRIRARPPRLPRPRPRPFQLPRP, the “shrunken log2 fold change” value is reported as -0.94.
With RRIRPRPPRLPRPRPRPIRMPRP the “shrunken log2 fold change” value was -0.039.
With RRIRARPPRLPRPRPRPLIEPRP the “shrunken log2 fold change” value was 0.388.
With RRIRRRPPRLPRPRPRPYPRPRP the “shrunken log2 fold change” value was 0.207.
In the case of RRIRHRPPRLPRPRPRPNKDPRP, the “shrunken log2 fold change” value is reported as -0.507.
In the case of RRIRYRPPRLPRPRPRPQPAPRP, the “shrunken log2 fold change” value is reported as 0.0964.
RRIRVRPPRLPRPRPRPHYAPRP was tested, and the “shrunken log2 fold change” value was -0.0814.
RRIRSRPPRLPRPRPRPKLPPRP was tested, and the “shrunken log2 fold change” value was -0.0678.
RRIRDRPPRLPRPRPRPFFHPRP was tested, and the “shrunken log2 fold change” value was 0.119.
In the case of RRIRARPPRLPRPRPRPIQRPRP, the “shrunken log2 fold change” value is reported as 0.112.
For RRIRQRPPRLPRPRPRPVETPRP, the “shrunken log2 fold change” value was -0.00674.
For RRIRTRPPRLPRPRPRPVVWPRP, the “shrunken log2 fold change” value was 0.617.
For RRIRERPPRLPRPRPRPFMVPRP, the “shrunken log2 fold change” value was -0.599.
With RRIRHRPPRLPRPRPRPWMPPRP the “shrunken log2 fold change” value was 0.0474.
With RRIRDRPPRLPRPRPRPDVDPRP the “shrunken log2 fold change” value was 0.0482.
RRIRVRPPRLPRPRPRPWFKPRP was tested, and the “shrunken log2 fold change” value was 0.0333.
With RRIRWRPPRLPRPRPRPANPPRP the “shrunken log2 fold change” value was 0.165.
In the case of RRIRMRPPRLPRPRPRPEGIPRP, the “shrunken log2 fold change” value is reported as 2.03.
RRIRTRPPRLPRPRPRPVDAPRP was tested, and the “shrunken log2 fold change” value was 0.188.
RRIRFRPPRLPRPRPRPWSIPRP was tested, and the “shrunken log2 fold change” value was -0.0103.
RRIRMRPPRLPRPRPRPYWEPRP was tested, and the “shrunken log2 fold change” value was -0.0124.
RRIRARPPRLPRPRPRPGPFPRP was tested, and the “shrunken log2 fold change” value was 0.231.
RRIRFRPPRLPRPRPRPTVMPRP was tested, and the “shrunken log2 fold change” value was -0.0812.
For RRIRSRPPRLPRPRPRPMADPRP, the “shrunken log2 fold change” value was -0.0211.
In the case of RRIRIRPPRLPRPRPRPVKHPRP, the “shrunken log2 fold change” value is reported as -0.107.
In the case of RRIRERPPRLPRPRPRPYCQPRP, the “shrunken log2 fold change” value is reported as -0.0159.
For RRIRKRPPRLPRPRPRPRLEPRP, the “shrunken log2 fold change” value was 0.782.
In the case of RRIRTRPPRLPRPRPRPGVTPRP, the “shrunken log2 fold change” value is reported as 0.276.
With RRIRCRPPRLPRPRPRPWVCPRP the “shrunken log2 fold change” value was 0.0107.
In the case of RRIRARPPRLPRPRPRPQKCPRP, the “shrunken log2 fold change” value is reported as 0.0806.
RRIRCRPPRLPRPRPRPWFIPRP was tested, and the “shrunken log2 fold change” value was -0.51.
With RRIRLRPPRLPRPRPRPVCKPRP the “shrunken log2 fold change” value was 0.000959.
In the case of RRIRRRPPRLPRPRPRPSENPRP, the “shrunken log2 fold change” value is reported as -0.0437.
In the case of RRIRQRPPRLPRPRPRPTLQPRP, the “shrunken log2 fold change” value is reported as 0.276.
RRIRGRPPRLPRPRPRPSFFPRP was tested, and the “shrunken log2 fold change” value was 0.202.
With RRIRKRPPRLPRPRPRPQIMPRP the “shrunken log2 fold change” value was -0.103.
With RRIRDRPPRLPRPRPRPWHLPRP the “shrunken log2 fold change” value was -0.231.
With RRIRNRPPRLPRPRPRPCYCPRP the “shrunken log2 fold change” value was -0.00992.
With RRIRERPPRLPRPRPRPKLQPRP the “shrunken log2 fold change” value was 0.00297.
In the case of RRIRERPPRLPRPRPRPFVSPRP, the “shrunken log2 fold change” value is reported as 0.176.
For RRIRARPPRLPRPRPRPDAGPRP, the “shrunken log2 fold change” value was 0.94.
In the case of RRIRDRPPRLPRPRPRPERMPRP, the “shrunken log2 fold change” value is reported as 0.216.
In the case of RRIRKRPPRLPRPRPRPVCYPRP, the “shrunken log2 fold change” value is reported as 0.242.
RRIRTRPPRLPRPRPRPYEYPRP was tested, and the “shrunken log2 fold change” value was 0.0353.
RRIRARPPRLPRPRPRPQFIPRP was tested, and the “shrunken log2 fold change” value was -0.382.
For RRIRARPPRLPRPRPRPWSSPRP, the “shrunken log2 fold change” value was -0.656.
In the case of RRIRERPPRLPRPRPRPVMSPRP, the “shrunken log2 fold change” value is reported as 0.0484.
For RRIRRRPPRLPRPRPRPQCEPRP, the “shrunken log2 fold change” value was 0.153.
For RRIRRRPPRLPRPRPRPGMRPRP, the “shrunken log2 fold change” value was 0.792.
For RRIRQRPPRLPRPRPRPMYHPRP, the “shrunken log2 fold change” value was -0.477.
For RRIRCRPPRLPRPRPRPDGMPRP, the “shrunken log2 fold change” value was -0.239.
For RRIRWRPPRLPRPRPRPQRCPRP, the “shrunken log2 fold change” value was 0.103.
With RRIRGRPPRLPRPRPRPLKCPRP the “shrunken log2 fold change” value was 0.303.
With RRIRGRPPRLPRPRPRPCNFPRP the “shrunken log2 fold change” value was 0.138.
RRIRCRPPRLPRPRPRPVMYPRP was tested, and the “shrunken log2 fold change” value was -0.199.
For RRIRLRPPRLPRPRPRPHSLPRP, the “shrunken log2 fold change” value was 0.0368.
For RRIRIRPPRLPRPRPRPEDDPRP, the “shrunken log2 fold change” value was -0.16.
RRIRIRPPRLPRPRPRPSFLPRP was tested, and the “shrunken log2 fold change” value was -1.11.
With RRIRLRPPRLPRPRPRPRFLPRP the “shrunken log2 fold change” value was -0.144.
With RRIRWRPPRLPRPRPRPLEDPRP the “shrunken log2 fold change” value was 0.047.
With RRIRSRPPRLPRPRPRPKEMPRP the “shrunken log2 fold change” value was 0.187.
With RRIRPRPPRLPRPRPRPYCTPRP the “shrunken log2 fold change” value was 0.164.
With RRIRQRPPRLPRPRPRPKAQPRP the “shrunken log2 fold change” value was 0.0112.
For RRIRLRPPRLPRPRPRPTPAPRP, the “shrunken log2 fold change” value was 0.306.
RRIRCRPPRLPRPRPRPNPCPRP was tested, and the “shrunken log2 fold change” value was -0.209.
For RRIRGRPPRLPRPRPRPAAPPRP, the “shrunken log2 fold change” value was 1.38.
With RRIRHRPPRLPRPRPRPADWPRP the “shrunken log2 fold change” value was 0.0838.
With RRIRDRPPRLPRPRPRPATTPRP the “shrunken log2 fold change” value was 0.163.
RRIRGRPPRLPRPRPRPRTHPRP was tested, and the “shrunken log2 fold change” value was 0.666.
With RRIRYRPPRLPRPRPRPSHSPRP the “shrunken log2 fold change” value was -0.0971.
